The target of test [1] is murine IL-6 receptor (murine) (UniProt P22272).
Test [2] deals with recombinant human IL-6 (human).

In test [1], “functionally neutralizing monoclonal antibody directed against the murine IL-6R (D7715A7, Pharmigen)” came in with a % Inhibition of B9 cell proliferation driven by 10 pg/ml hIL-6 (MTT, Absorbance570) of 80 % inhibition and a % Inhibition of B9 cell proliferation driven by 1:40 vIL-6 sup (MTT, Absorbance570) of 53.8 % inhibition. Regarding “monoclonal antibody directed against murine IL-2 (S4B6, Pharmigen)”, in test [2], the % Inhibition of B9 cell proliferation driven by 10 pg/ml hIL-6 (MTT, Absorbance570) was found to be 23.4 % inhibition.

Source of the values: patent US6264958.
